Source: patent US20240392023A1 (ABCLON, published 2024)

Tests used:
[1] = molecular target: T1, CD30 expressed on cells (CD30-293T, SUDHL1, HDLM-2) (UniProt P28908 19-595); assay: cell-based or functional assay
T1 sequence (looked up): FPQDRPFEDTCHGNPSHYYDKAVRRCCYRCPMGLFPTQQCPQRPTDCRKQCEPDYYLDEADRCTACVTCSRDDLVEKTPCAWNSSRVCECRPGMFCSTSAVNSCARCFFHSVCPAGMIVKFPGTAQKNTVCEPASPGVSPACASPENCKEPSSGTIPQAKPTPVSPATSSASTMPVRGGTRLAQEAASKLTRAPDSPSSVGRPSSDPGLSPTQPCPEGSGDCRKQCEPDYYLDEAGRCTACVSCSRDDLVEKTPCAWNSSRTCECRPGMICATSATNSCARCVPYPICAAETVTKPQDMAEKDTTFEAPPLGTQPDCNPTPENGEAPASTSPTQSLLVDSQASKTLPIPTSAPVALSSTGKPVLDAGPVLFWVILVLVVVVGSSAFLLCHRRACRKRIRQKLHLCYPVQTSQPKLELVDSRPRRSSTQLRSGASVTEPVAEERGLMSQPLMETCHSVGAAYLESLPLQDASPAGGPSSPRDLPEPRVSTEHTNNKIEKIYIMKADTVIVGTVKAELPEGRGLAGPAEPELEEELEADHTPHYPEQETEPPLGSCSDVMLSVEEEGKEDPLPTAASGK

[2] = molecular target: T1, CD30 expressed on cells (CD30-293T, …); assay: cell-based or functional assay; remark: listed apart in the source

Binder	Cytotoxicity (%) against CD30-expressing cell (SUDHL1), CAR-T/Target 0.11 [1] [%]	Cytotoxicity (%) against CD30-expressing cell (SUDHL1), CAR-T/Target 0.33 [1] [%]	Cytotoxicity (%) against CD30-expressing cell (SUDHL1), CAR-T/Target 1 [1] [%]	Cytotoxicity (%) against CD30-expressing cell (CD30-293T), CAR-T/Target 0.11 [2] [%]	Cytotoxicity (%) against CD30-expressing cell (CD30-293T), CAR-T/Target 0.33 [2] [%]	Cytotoxicity (%) against CD30-expressing cell (CD30-293T), CAR-T/Target 1 [2] [%]
scFv CAR of anti CD30 antibody (T1-117), on CAR-T cells (other) EVQLLESGGGLVQPGGSLRLSCAASGFTFSYYGMSWVRQAPGKGLEWVSYISGYSSYTYYADSVKGRFTISRDNSKNTLYLQMNSLRAEDTAVYYCARYNDSGSFDYWGQGTLVTVSSGGGGSGGGGSGGGGSQSVLTQPPSASGTPGQRVTISCSGSSSNIGSNYVYWYQQLPGTAPKLLIYRNNQRPSGVPDRFSGSKSGTSASLAISGLRSEDEADYYCAADAGNRYVFGGGTKLTVLGGQAGQTTTPAPRPPTPAPTIASQPLSLRPEACRPAAGGAVHTRGLDFACDIYIWAPLAGTCGVLLLSLVITLYCKRGRKKLLYIFKQPFMRPVQTTQEEDGCSCRFPEEEEGGCELRVKFSRSADAPAYQQGQNQLYNELNLGRREEYDVLDKRRGRDPEMGGKPRRKNPQEGLYNELQKDKMAEAYSEIGMKGERRRGKGHDGLYQGLSTATKDTYDALHMQALPPR	-2	11	21	-3	-1	-14
scFv CAR of anti CD30 antibody (T1-2), on CAR-T cells (other) EVQLLESGGGLVQPGGSLRLSCAASGFTFSGYGMSWVRQAPGKGLEWVSYISGYSYYTYYADSVKGRFTFSRDNSKNTLYLQMNSLRAEDTAVYYCARYDGNGFDYWGQGTLVTVSSGGGGSGGGGSGGGGSQSVLTQPPSASGTPGQRVTISCSGSSSNIGSNYVYWYQQLPGTAPKLLIYRNNQRPSGVPDRFSGSKSGTSASLAISGLRSEDEADYYCAADSSDDSYVFGGGTKLTVLGGQAGQTTTPAPRPPTPAPTIASQPLSLRPEACRPAAGGAVHTRGLDFACDIYIWAPLAGTCGVLLLSLVITLYCKRGRKKLLYIFKQPFMRPVQTTQEEDGCSCRFPEEEEGGCELRVKFSRSADAPAYQQGQNQLYNELNLGRREEYDVLDKRRGRDPEMGGKPRRKNPQEGLYNELQKDKMAEAYSEIGMKGERRRGKGHDGLYQGLSTATKDTYDALHMQALPPR	11	35	54	1	7	13
scFv CAR of anti CD30 antibody (T1-36), on CAR-T cells (other) EVQLLESGGGLVQPGGSLRLSCAASGFTFSYYYMSWVRQAPGKGLEWVSYIGGGGSGTYYADSVKGRFTISRDNSKNTLYLQMNSLRAEDTAVYYCARGPYYGYFDYWGQGTLVTVSSGGGGSGGGGSGGGGSQSVLTQPPSASGTPGQRVTISCSGSSSNIGSNYVYWYQQLPGTAPKLLIYRNNQRPSGVPDRFSGSKSGTSASLAISGLRSEDEADYYCAAYPSYDSYVFGGGTKLTVLGGQAGQTTTPAPRPPTPAPTIASQPLSLRPEACRPAAGGAVHTRGLDFACDIYIWAPLAGTCGVLLLSLVITLYCKRGRKKLLYIFKQPFMRPVQTTQEEDGCSCRFPEEEEGGCELRVKFSRSADAPAYQQGQNQLYNELNLGRREEYDVLDKRRGRDPEMGGKPRRKNPQEGLYNELQKDKMAEAYSEIGMKGERRRGKGHDGLYQGLSTATKDTYDALHMQALPPR	48	89	95	21	78	98
scFv CAR of anti CD30 antibody (T1-7), on CAR-T cells (other) EVQLLESGGGLVQPGGSLRLSCAASGFTFSGYGMSWVRQAPGKGLEWVSYISSGSYYTYYADSVKGRFTISRDNSKNTLYLQMNSLRAEDTAVYYCARYRGDNDYYGYFDYWGQGTLVTVSSGGGGSGGGGSGGGGSQSVLTQPPSASGTPGQRVTISCSCSSSNIGNNAVSWYQQLPGTAPKLLIYRNNQRPSGVPDRFSGSKSGTSASLAISGLRSEDEADYYCAADYGSDYVFGGGTKLTVLGGQAGQTTTPAPRPPTPAPTIASQPLSLRPEACRPAAGGAVHTRGLDFACDIYIWAPLAGTCGVLLLSLVITLYCKRGRKKLLYIFKQPFMRPVQTTQEEDGCSCRFPEEEEGGCELRVKFSRSADAPAYQQGQNQLYNELNLGRREEYDVLDKRRGRDPEMGGKPRRKNPQEGLYNELQKDKMAEAYSEIGMKGERRRGKGHDGLYQGLSTATKDTYDALHMQALPPR	8	18	34	-5	-2	-2
scFv CAR of anti CD30 antibody (T1-8), on CAR-T cells (other) EVQLLESGGGLVQPGGSLRLSCAASGFTFSSYMSWVRQAPGKGLEWVSSIGSGYYSTYYADSVKGRFTISRDNSKNTLYLQMNSLRAEDTAVYYCARDYYGGFDYWGQGTLVTVSSGGGGSGGGGSGGGGSQSVLTQPPSASGTPGQRVTISCSGSSSNIGSNYVYWYQQLPGTAPKLLIYRNNQRPSGVPDRFSGSKSGTSASLAISGLRSEDEADYYCAAYDSYSYVFGGGTKLTVLGGQAGQTTTPAPRPPTPAPTIASQPLSLRPEACRPAAGGAVHTRGLDFACDIYIWAPLAGTCGVLLLSLVITLYCKRGRKKLLYIFKQPFMRPVQTTQEEDGCSCRFPEEEEGGCELRVKFSRSADAPAYQQGQNQLYNELNLGRREEYDVLDKRRGRDPEMGGKPRRKNPQEGLYNELQKDKMAEAYSEIGMKGERRRGKGHDGLYQGLSTATKDTYDALHMQALPPR	43	60	78	-8	0	35
scFv CAR of anti CD30 antibody (T1-23), on CAR-T cells (other) EVQLLESGGGLVQPGGSLRLSCAASGFTFSSYSMSWVRQAPGKGLEWVSGIGYPYYTYYADSVKGRFTISRDNSKNTLYLQMNSLRAEDTAVYYCARYYYDYGFDYWGQGTLVTVSSGGGGSGGGGSGGGGSQSVLTQPPSASGTPGQRVTISCSGSSSNIGSNYVYWYQQLPGTAPKLLIYRNNQRPSGVPDRFSGSKSGTSASLAISGLRSEDEADYYCAAYRSYDYVFGGGTKLTVLGGQAGQTTTPAPRPPTPAPTIASQPLSLRPEACRPAAGGAVHTRGLDFACDIYIWAPLAGTCGVLLLSLVITLYCKRGRKKLLYIFKQPFMRPVQTTQEEDGCSCRFPEEEEGGCELRVKFSRSADAPAYQQGQNQLYNELNLGRREEYDVLDKRRGRDPEMGGKPRRKNPQEGLYNELQKDKMAEAYSEIGMKGERRRGKGHDGLYQGLSTATKDTYDALHMQALPPR	37	68	84	7	41	79
scFv CAR of anti CD30 antibody (T1-10), on CAR-T cells (other) EVQLLESGGGLVQPGGSLRLSCAASGFTFSSYGMSWVRQAPGKGLEWVSYISGGSYYTYYADSVKGRFTISRDNSKNTLYLQMNSLRAEDTAVYYCARYGYGYYDGSFDYWGQGTLVTVSSGGGGSGGGGSGGGGSQSVLTQPPSASGTPGQRVTISCSGSSSNIGSNYVYWYQQLPGTAPKLLIYRNNQRPSGVPDRFSGSKSGTSASLAISGLRSEDEADYYCAADGPYNYVFGGGTKLTVLGGQAGQTTTPAPRPPTPAPTIASQPLSLRPEACRPAAGGAVHTRGLDFACDIYIWAPLAGTCGVLLLSLVITLYCKRGRKKLLYIFKQPFMRPVQTTQEEDGCSCRFPEEEEGGCELRVKFSRSADAPAYQQGQNQLYNELNLGRREEYDVLDKRRGRDPEMGGKPRRKNPQEGLYNELQKDKMAEAYSEIGMKGERRRGKGHDGLYQGLSTATKDTYDALHMQALPPR	33	60	81	1	7	33
